In patent US7648964B2, “Use of lacritin in promoting ocular cell survival” (University of Virginia Patent Foundation, priority 2004, dated 2010):
Entries after “also recorded” stand apart in the source; their conditions may differ.

B1: C-25: deletion of the 25 carboxy terminal amino acids of mature lacritin (SEQ ID NO:10) (protein)
chain: EDASSDSTGADPAQEAGTSKPNEEISGPAEPASPPETTTTAQETSAAAVQGTAKVTSSRQELNPLKSIVEKSILLTEQALAKAGKGMHGGVPGG
modifications: homo sapiens
B2: C-5: deletion of the 5 carboxy terminal amino acids of mature lacritin (SEQ ID NO:10) (protein, listed as Homo sapiens)
chain: EDASSDSTGADPAQEAGTSKPNEEISGPAEPASPPETTTTAQETSAAAVQGTAKVTSSRQELNPLKSIVEKSILLTEQALAKAGKGMHGGVPGGKQFIENGSEFAQKLLKKFSL

Legend:
caspase-8 = assay: Caspase-8 activity in human corneal epithelial cells treated with TNF-α; format: cell-based
Method: FIG. 12 graphically illustrates the ability of lacritin polypeptides to block TNFα induced caspase-8 activity in human corneal epithelial cells. The ordinate represents relative fluorescence units. White bars indicate 1 hour and diagonally-hatched bars indicate 6 hours.
(§1) Lacritin-induced proliferation and calcium signaling was studied in the human corneal epithelial (HCE) cell line. HCE cells were grown at 37° C. in DMEM F/12 supplemented with 10% FBS and 50 μg/ml gentamicin. Each experiment was done in a dose- and time-dependent manner using TNF-α (5-20 ng/ml) and lacritin (1-10 nM). Cell viability was measured spectrophotometrically at an absorbance of 570 nm using the MTT assay. Caspase-8 activity was detected fluorometrically by measuring cleavage of the fluorogenic substrate IETD-pNA at an excitation wavelength of 405 nm. Lacritin-induced cell proliferation was studied by H3-thymidine incorporation and via fluorescence-based detection of PKC, PLC and cAMP. Calcium signaling was detected by confocal microscopy of Fluo-4 loaded cells.

caspase-9 = assay: Caspase-9 activity in human corneal epithelial cells treated with TNF-α; format: cell-based; details: for effect on TNF-α-induced caspase-9 activity: lacritin polypeptides 10 nM
Method: FIG. 13 graphically illustrates the ability of lacritin polypeptides (10 nM) to block TNFα induced caspase-9 activity in human corneal epithelial cells. The ordinate represents relative fluorescence units. White bars indicate 6 hours and diagonally-hatched bars indicate 9 hours.
Caspase-9 activity was measured in cells treated with various combinations of TNF-α, fragments of lacritin, and the PKC inhibitor Go6976. […] The PKC-α inhibitor Go6976 and C-25 fail to block this increase of the downstream initiator caspase-9.

[1] = tested on: human corneal epithelial (HCE) cell line; assay: TNF-α-induced cell death in HCE cells (MTT cell viability); format: cell-based; details: for protection from TNF-induced cell death (viability): 18 or 30 hours, FIG. 10
Method: as §1

NFATC1 = NFATC1 translocation in HSG cells (immunofluorescence); format: cell-based, human; details: HSG and corneal epithelial cells
From the text: In order to dissect the molecular pathways leading to the cell survival by lacritin, protein kinases and transcriptional factors were studied by Western blotting and immunofluorescence microscopy. […] On the other hand, there were increased activities of transcriptional factors such as nuclear factor of activated T-cells (NFAT) and NF-kappaB. In FIG. 4, translocation of PKC alpha and NFAT was detected by immunofluorescence coupled with confocal microscopic imaging. In resting HSG cells (left three images), PKC alpha distributes mainly in cytosol and membrane. Similarly, NFATc1 was also found to localize largely in cytosol. Cellular co-location of PKC alpha and NFATc1 is apparent upon merging the two immunofluorescent images, as the merged cy3 and FITC labels produce distinctive yellow color.
Images were acquired at 2-3 s intervals using LaserSharp2000 software (Bio-Rad) and store on disc for later analysis. For translocation assays, HSG cells […] phorbol 12-myristate 13-acetate, […], then washed with phosphate-buffered saline, formaldehyde-fixed, blocked with phosphate-buffered saline containing 1% bovine serum albumin and 10% goat serum, incubated with anti-PKCα (C-20) or anti-NFATC1 (mab 7A6) (both from Santa Cruz Biotechnology Inc.; Santa Cruz, Calif.) followed by secondary Cy3-, FITC- or Alexa488-labeled antibodies and confocal microscopic visualization (Bio-Rad Radiance2100).

PKCα [2] = assay: Phospho-PKCα blot of HSG cell lysates; format: cell-based, human
Method: (§2) For phosphotyrosine blotting and mitogenesis assays, cells in serum-containing media were seeded overnight in 24-well plates at a density of 0.5×10^5 cells/mm^2 corresponding to 20-30% confluency after cell attachment, incubated in serum-free media without supplements for 24 h (phosphotyrosine) or washed with serum-free media without supplements three times (mitogenesis) and incubated with lacritin (1-1000 nM), or positive controls EGF (1.6 nM) and 10% fetal bovine serum, or negative controls bovine serum albumin or no additive in serum-free media without supplements for the indicated times (phosphotyrosine) or 30 h (mitogenesis). For phosphotyrosine assays, cells were extracted in 1% NP40 containing sodium vanadate (2 mg/ml), DTT (5 mg/ml), protease inhibitors, 50 mM HEPES, 100 mM NaCl, and 2 mM EDTA; then separated by 10% SDS PAGE, transferred and blotted. The following antibodies (Cell Signaling Technology, Beverly Mass.) were tested: antiphosphotyrosine antibody (P-Tyr-100), anti-phospho-PKC αβII, anti-PKCα, anti-phospho-PKCδ, anti-phospho-PKC (pan), anti-p44/42 MAPK, anti-phospho-Raf, anti-phospho-SAPK/JNK, anti-phospho-p38 Map kinase, anti-phospho-Raf, anti-phospho-Akt, anti-phospho-CaMKII, anti-phospho-MARCKS, or anti-tubulin (loading control). After washing, bound antibodies were detected with peroxidase-labeled secondary antibody and ECL. With the exception of at least nine proteins in the P-Tyr-100 blot (FIG. 1), none of the effectors tested above appeared to be phospho-activated during lacritin signaling (not shown). For mitogenesis (Hussaini et al., '00), [^3H]-thymidine (2 mCi/ml) was added for the next 6 h. Incorporation was stopped with ice-cold phosphate buffered saline and followed by addition of cold and then room temperature trichloracetic acid (10%) for 10 min each, washing of cells with phosphate buffered saline, solubilization with 1 N sodium hydroxide, neutralization with 1 N hydrochloric acid, addition of scintillation fluid and then quantitation in a scintillation counter. To deplete PKCα in HSG cells, a pool of four PKCα-specific siRNAs (100 nM) were transfected via LipofectAMINE 2000 in Opti-MEMI Reduced Serum Medium (Invitrogen, Grand Island N.Y.) without serum and antibiotics according to manufacturer's instructions. Each of the four siRNAs was also individually transfected. In negative controls, cells were transfected with a pool of four lamin-specific siRNAs (Upstate LLC, Charlottesville Va.; Dharmacon Inc, Lafayette Colo.). Seventy-two hours post-transfection, mitogenesis was assessed by co-addition of 10 […] lacritin and [^3H]-thymidine (2 mCi/ml) (Amersham, Piscataway N.J.) for 24 hrs. PKCα depletion was confirmed by Western blotting.
We imaged PKCα in cells 15 min after treatment (FIG. 8). Nonmitogenic construct/fragment C-25 (10 nM) had no effect, leaving PKCa diffusely distributed throughout the cytoplasm. […] The phosphorylation state of PKCα influences its translocation site. Hyperphosphorylated PKCα becomes associated with the plasma membrane whereas hypophosphorylated or dephosphorylated PKCα is known to translocate to the perinuclear Golgi region. To determine if the latter is true and if so over what time course, we treated cells with lacritin, N-24 and C-25, and then blotted cell lysates for phospho-PKC ? (FIG. 8B). 10 nM lacritin promotes PKC ? dephosphorylation within 1 min of addition. This form is sustained for at least 15 min, but by 30 min has returned to baseline phosphorylation. Dephosphorylation triggered by increasing molar levels of lacritin or N-24 mirrored the proliferation response with optimal dephosphorylation at 10 nM. Non-mitogenic C-25 had no effect, whereas positive control 4β-phorbol 12-myristate 13-acetate-promoted hyperphosphorylation.

PKCα [3] = assay: PKCα translocation in HSG cells (immunofluorescence, fractionation); format: cell-based, human; details: 15 min after treatment
From the text: In order to dissect the molecular pathways leading to the cell survival by lacritin, protein kinases and transcriptional factors were studied by Western blotting and immunofluorescence microscopy.
Images were acquired at 2-3 s intervals using LaserSharp2000 software (Bio-Rad) and store on disc for later analysis.

[4] = tested on: human salivary ductal (HSG) cells; assay: 3H-thymidine uptake mitogenesis assay; format: cell-based; details: 10 nM; compared to intact lacritin
Method: as §2

caspase-3 = assay: Caspase-3 activity in human corneal epithelial cells treated with TNF; format: cell-based; details: FIG. 11
Method: FIG. 11 graphically illustrates the ability of lacritin and fragments of lacritin to inhibit the ability of tumor necrosis factor (TNF) to regulate caspase-3 activity in human corneal epithelial cells. Go6976 is an inhibitor of protein kinase C. The ordinate represents relative fluorescence units. White bars indicate 3 hours and diagonally-hatched bars indicate 6 hours.
as §1

MUC16 = MUC16 blot of human corneal epithelial cells; format: cell-based; details: 10 nM
From the text: MUC16 is an important mucin on the ocular surface. Mucin contributes to the tear film, is important for wetting the ocular surface, and is reduced in Sjogren's syndrome patients. […] Cells were blotted for MUC16.

Row | Molecule | increase in caspase-8 activity (caspase-8; TNF-α alone) | increase in caspase-9 activity (caspase-9; TNF-α alone) | TNF-α-induced cell death ([1]; after 18 hr) | TNF-α-induced cell death ([1]; after 30 hr) | effect on TNF-α-induced caspase-8 activity (caspase-8) | effect on TNF-α-induced caspase-9 activity (caspase-9) | protection from TNF-induced cell death (viability) [1] | NFATC1 translocation (NFATC1) | effect on PKCα phosphorylation (PKCα [2]) | PKCα translocation (PKCα [3]) | mitogenic activity of deletion constructs [4] | protection from cell death by TNF (caspase-3 activity) (caspase-3) | MUC16 secretion (MUC16)
1 | TNF-α [reference compound] | three-fold increase; also recorded: multifold increase | multifold increase | 32.2±2.6% | 73.7±10% |  |  |  |  |  |  |  |  | 
2 | B1 |  |  |  |  | fail to block | fail to block | no effect on viability loss | had no effect | had no effect | had no effect | inactive | do not protect | inactive
3 | B2 |  |  |  |  | blocked | blocked | protect |  |  |  | active |  | 
